This is an account of results in article PMC11366018 (Nature Communications, 2024).

Values joined by “and” are separate entries in the source; they are usually repeats but may differ in a detail not shown here. Equal entries are not always repeated.

Sequences and labels used below:
B1: S2A4 (antibody, V domains shown)
VH: EVQLVESGGGLVQPGGSLRLSCAASGFTFSSYWMNWVRQAPGKGLEWVANIKQDGSEKYYVDSVKGRFTISRDNAKNSLFLQMNSLRAEDTAVYYCARVWWLRGSFDYWGQGTLVTVSS
VL: NFMLTQPHSVSESPGKTVTISCTGSSGSIASNYVQWYQQRPGSAPTTVIYEDNQRPSGVPDRFSGSIDSSSNSASLTISGLKTEDEADYYCQSYDSSNHVVFGGGTKLTVL
B2: H18 (antibody, V domains shown)
VH: QVQLQESGPGLVKPSETLSLTCTVSGGSVSSGGYFWSWIRQPPGKGLEWIGCIYYSGSTNYNPSLKSRVTISVDTSKDQFSLKLSSVTAADTAVYYCARQLWLRGRFDYWGQGTLVTVSS
VL: NFMLTQPHSVSESPGKTVTISCTRSSGSIASNYVQWYQQRPGSSPTTVIYEDNQRPSGVPDRFSGSIDSSSNSASLTISGLKTEDEADYYCQSYDSSNVVFGGGTKLTVL
notes: human IgG1
B3: R1-26 (antibody, V domains shown)
VH: EVQLVESGGGLVQPGGSLRLSCAASGFTFSSYWMSWVRQAPGKGLEWVANIKQDGSEKYYVDSVKGRFTISRDNAKNSLYLQMNSLRAEDTAVYYCARGQLGPWVGVDYWGQGTLVTVSS
VL: NFMLTQPHSVSESPGKTVTISCTGSSGSIASNYVQWYQQRPGSAPTTVIYEDNQRPSGVPDRFSGSIDSSSNSASLTISGLKTEDEADYYCQSYDSSNWVFGGGTQLTVL

For this assay, the target named is SARS-CoV-2 RBD (WT) (SARS-CoV-2 Wuhan-Hu-1 (wildtype), UniProt P0DTC2). As to the kind of experiment: BLI. Particulars: both partners purified.
As to B1, the Kd stood at 25.3 nM, the koff came out at 0.0096 s⁻¹ and the on-rate (kon) was 380000 M⁻¹ s⁻¹.
With B2, the dissociation constant (Kd) was 29.5 nM and 29 nM; the koff was 0.00931 s⁻¹ and 0.0162 s⁻¹; the kon is 316000 M⁻¹ s⁻¹ and 560000 M⁻¹ s⁻¹.
On to B3, for which the affinity, expressed as Kd, was 5.75 nM; the koff turned out to be 0.00291 s⁻¹; the kon is 507000 M⁻¹ s⁻¹.
